Experimental data: US20180133314A1 (Daiichi Sankyo, published 2018)
One block for each binder: values may come before it.

Tests used:
[1] = molecular target: T1, human FGFR3 IIIc variant protein (human, UniProt P22607 23-806); experiment: immunostaining of formalin-fixed, paraffin-embedded transfected 293alpha cell blocks (denatured), heat retrieval
[2] = molecular target: T2, human FGFR1 IIIc variant protein (human, UniProt P11362 22-822); experiment: as above
[3] = molecular target: T3, human FGFR2 IIIb variant protein (human, UniProt P21802-3 22-822); experiment: immunostaining of formalin-fixed, paraffin-embedded blocks of 293alpha cells forced to express FGFR2 IIIb; antibody at 15 ug/mL, heat retrieval
T3 construct: whole, on cells; also called hFGFR2 IIIb
T3 sequence (P21802 other isoform, or with tags, fused parts or gaps mutant limits assumed): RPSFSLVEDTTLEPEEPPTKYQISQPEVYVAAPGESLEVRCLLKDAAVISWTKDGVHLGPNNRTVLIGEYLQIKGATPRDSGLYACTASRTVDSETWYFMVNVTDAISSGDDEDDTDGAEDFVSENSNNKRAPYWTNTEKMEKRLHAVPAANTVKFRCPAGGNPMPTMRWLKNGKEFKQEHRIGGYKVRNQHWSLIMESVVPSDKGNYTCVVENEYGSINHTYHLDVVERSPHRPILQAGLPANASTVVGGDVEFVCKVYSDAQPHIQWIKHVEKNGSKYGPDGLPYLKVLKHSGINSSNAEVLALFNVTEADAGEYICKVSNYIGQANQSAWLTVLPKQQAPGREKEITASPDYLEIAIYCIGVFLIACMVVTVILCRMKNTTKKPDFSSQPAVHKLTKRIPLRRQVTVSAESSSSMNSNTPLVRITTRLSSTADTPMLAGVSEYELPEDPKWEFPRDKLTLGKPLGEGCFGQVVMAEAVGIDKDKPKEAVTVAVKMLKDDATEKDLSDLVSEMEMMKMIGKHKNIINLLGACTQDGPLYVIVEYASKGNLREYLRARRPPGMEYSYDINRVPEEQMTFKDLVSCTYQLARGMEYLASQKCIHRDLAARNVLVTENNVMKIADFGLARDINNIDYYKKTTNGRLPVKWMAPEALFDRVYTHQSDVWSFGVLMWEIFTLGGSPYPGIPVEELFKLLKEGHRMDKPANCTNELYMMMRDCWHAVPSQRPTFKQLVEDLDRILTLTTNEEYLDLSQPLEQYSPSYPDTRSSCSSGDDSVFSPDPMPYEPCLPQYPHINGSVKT

[4] = molecular target: T4, human FGFR2 IIIc variant protein (human, UniProt P21802 22-821); experiment: immunostaining of formalin-fixed, paraffin-embedded blocks of 293alpha cells forced to express FGFR2 IIIc; antibody at 15 ug/mL, heat retrieval
T4 construct: also called hFGFR2 IIIc
T4 sequence (P21802 22-821 limits assumed, change not shown): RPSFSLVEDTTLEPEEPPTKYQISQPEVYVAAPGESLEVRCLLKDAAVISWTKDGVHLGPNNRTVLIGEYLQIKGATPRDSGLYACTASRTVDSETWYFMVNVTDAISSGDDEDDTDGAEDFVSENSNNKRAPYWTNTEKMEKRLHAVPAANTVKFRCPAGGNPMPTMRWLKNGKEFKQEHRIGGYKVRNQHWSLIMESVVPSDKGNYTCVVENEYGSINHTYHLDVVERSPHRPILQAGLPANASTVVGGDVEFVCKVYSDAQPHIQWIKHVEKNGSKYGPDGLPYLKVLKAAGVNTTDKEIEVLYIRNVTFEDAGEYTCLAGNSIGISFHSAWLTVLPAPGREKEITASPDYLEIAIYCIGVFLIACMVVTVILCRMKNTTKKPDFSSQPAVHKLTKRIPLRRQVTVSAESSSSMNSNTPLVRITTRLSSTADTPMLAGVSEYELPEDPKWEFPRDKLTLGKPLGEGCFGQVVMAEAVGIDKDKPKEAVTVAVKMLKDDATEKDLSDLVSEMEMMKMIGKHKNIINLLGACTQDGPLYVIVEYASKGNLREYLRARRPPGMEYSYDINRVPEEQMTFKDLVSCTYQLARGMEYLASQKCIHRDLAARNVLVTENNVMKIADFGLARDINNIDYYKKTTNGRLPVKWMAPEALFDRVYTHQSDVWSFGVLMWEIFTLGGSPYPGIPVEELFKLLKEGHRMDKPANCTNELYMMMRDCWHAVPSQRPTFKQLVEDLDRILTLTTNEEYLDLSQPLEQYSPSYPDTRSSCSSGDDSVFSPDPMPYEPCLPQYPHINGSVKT

[5] = molecular target: T1, human FGFR3 IIIc variant protein; experiment: flow cytometry on transfected HEK293T cells (non-denatured)
From the text: (§1) The binding specificity of the mouse chimeric FR2-2nd_#028 and the mouse chimeric FR2-2nd_#023 prepared in Example 3)-7 for non-denatured molecules of the FGFR family was confirmed by flow cytometry. Each HEK293T cell suspension prepared in Example 3)-8-1 was centrifuged to remove a supernatant. Then, the pcDNA-DEST40-FGFR1 IIIb-, pcDNA-DEST40-FGFR1 IIIc-, pcDNA-DEST40-FGFR2 IIIb-, pcDNA-DEST40-FGFR2 IIIc-, pcDNA-DEST40-FGFR3 IIIb-, pcDNA-DEST40-FGFR3 IIIc-, pcDNA-DEST40-FGFR4-, or pcDNA-DEST40-transfected HEK293T cells were suspended by the addition of a negative control mouse IgG1 (manufactured by R&D Systems, Inc.) or the mouse chimeric FR2-2nd_#028 or the mouse chimeric FR2-2nd_#023 adjusted to 5 μg/ml, and left standing at 4° C. for 1 hour. The cells were washed once with PBS containing 5% FBS, then suspended by the addition of Fluorescein-Conjugated Goat IgG Fraction to Mouse IgG (manufactured by MP Biomedicals, Inc.) diluted 500-fold with PBS containing 5% FBS, and left standing at 4° C. for 1 hour. […] The data was analyzed using Flowjo (manufactured by Tree Star Inc.). After removal of 7-aminoactinomycin D-positive dead cells by gating, the average fluorescence intensity (MFI) of the FITC of live cells was calculated (FIG. 1).

[6] = molecular target: T3, human FGFR2 IIIb variant protein; experiment: immunostaining of formalin-fixed, paraffin-embedded blocks of 293alpha cells forced to express FGFR2 IIIb; antibody at 15 ug/mL, heat retrieval; remark: listed apart in the source
[7] = molecular target: T4, human FGFR2 IIIc variant protein; experiment: immunostaining of formalin-fixed, paraffin-embedded blocks of 293alpha cells forced to express FGFR2 IIIc; antibody at 15 ug/mL, heat retrieval; remark: listed apart in the source
[8] = molecular target: T4, human FGFR2 IIIc variant protein; experiment: flow cytometry, hybridoma culture supernatant on transfected HEK293T cells
Experimental: HEK293T cells were inoculated at a density of 5×10⁴ cells/cm² to a 225-cm² flask (manufactured by Sumitomo Bakelite Co., Ltd.) and cultured overnight at 37° C. under 5% CO₂ conditions in a DMEM medium containing 10% FBS. On the next day, the pcDNA-DEST40-FGFR2 IIIc, the pcDNA-DEST40-FGFR2 IIIb or a control pcDNA-DEST40 was transfected to the HEK293T cells using Lipofectamine 2000, and the cells were further cultured overnight at 37° C. under 5% CO₂ conditions. On the next day, the expression vector-transfected HEK293T cells were treated with TrypLE Express (manufactured by Life Technologies Corp.), washed with DMEM containing 10% FBS, and then suspended in PBS containing 5% FBS. The obtained cell suspension was used in flow cytometry analysis.
The pcDNA-DEST40-FGFR2 IIIc and pcDNA-DEST40-FGFR2 IIIb binding specificity of the antibody produced by each hybridoma determined to be positive by Cell-ELISA in Example 1)-4 was further confirmed by flow cytometry. Each HEK293T cell suspension prepared in Example 1)-5-1 was centrifuged to remove a supernatant. […] The data was analyzed using Flowjo (manufactured by Tree Star Inc.). After removal of 7-aminoactinomycin D-positive dead cells by gating, the FITC fluorescence intensity of live cells was plotted to a histogram.

[9] = molecular target: T1, human FGFR3 IIIc variant protein; experiment: immunostaining of formalin-fixed, paraffin-embedded transfected 293alpha cell blocks (denatured), proteinase K retrieval
[10] = molecular target: T3, human FGFR2 IIIb variant protein; experiment: as above
[11] = molecular target: T2, human FGFR1 IIIc variant protein; experiment: as above
[12] = molecular target: T3, human FGFR2 IIIb variant protein; experiment: flow cytometry on transfected HEK293T cells (non-denatured)
From the text: as §1

[13] = molecular target: T4, human FGFR2 IIIc variant protein; experiment: immunostaining of formalin-fixed, paraffin-embedded transfected 293alpha cell blocks (denatured), 15 µg/mL
Experimental: The cells were transfected with the FGFR1 IIIb, FGFR1 IIIc, FGFR2 IIIb, FGFR2 IIIc, FGFR3 IIIb, FGFR3 IIIc, or FGFR4 expression vector constructed in Examples 1)-3-1, 1)-3-2, and 1)-3-3 or an empty vector, i.e., pcDNA-DEST40-FGFR1 IIIb, pcDNA-DEST40-FGFR1 IIIc, pcDNA-DEST40-FGFR2 IIIb, pcDNA-DEST40-FGFR2 IIIc, pcDNA-DEST40-FGFR3 IIIb, pcDNA-DEST40-FGFR3 IIIc, pcDNA-DEST40-FGFR4, or pcDNA-DEST40 using FuGENE 6 (manufactured by Roche Diagnostics K.K.) and cultured for two nights at 37° C. under 5% CO₂ conditions. The obtained cells were recovered using TrypLE Express (manufactured by Life Technologies Corp.) and centrifuged to obtain a pellet, which was then washed once with PBS and centrifuged. The resulting pellet was fixed in 20% neutral buffered formalin.
Each sample was stained using an automatic staining apparatus (LEICA BOND-III; manufactured by Leica Biosystems Nussloch GmbH). For deparaffinization, the sample was heated to 72° C., then Bond Dewax Solution (manufactured by Leica Biosystems Nussloch GmbH) was added thereto, and the sample was incubated for 30 seconds, followed by addition of ethanol and washing 4 times with Bond Wash Solution (manufactured by Leica Biosystems Nussloch GmbH). Enzyme Proteinase K (IHC) (manufactured by Leica Biosystems Nussloch GmbH) diluted 200-fold was added thereto, and the sample was incubated at 37° C. for 5 minutes. […]

T2 sequence (P11362 22-822 limits assumed, change not shown): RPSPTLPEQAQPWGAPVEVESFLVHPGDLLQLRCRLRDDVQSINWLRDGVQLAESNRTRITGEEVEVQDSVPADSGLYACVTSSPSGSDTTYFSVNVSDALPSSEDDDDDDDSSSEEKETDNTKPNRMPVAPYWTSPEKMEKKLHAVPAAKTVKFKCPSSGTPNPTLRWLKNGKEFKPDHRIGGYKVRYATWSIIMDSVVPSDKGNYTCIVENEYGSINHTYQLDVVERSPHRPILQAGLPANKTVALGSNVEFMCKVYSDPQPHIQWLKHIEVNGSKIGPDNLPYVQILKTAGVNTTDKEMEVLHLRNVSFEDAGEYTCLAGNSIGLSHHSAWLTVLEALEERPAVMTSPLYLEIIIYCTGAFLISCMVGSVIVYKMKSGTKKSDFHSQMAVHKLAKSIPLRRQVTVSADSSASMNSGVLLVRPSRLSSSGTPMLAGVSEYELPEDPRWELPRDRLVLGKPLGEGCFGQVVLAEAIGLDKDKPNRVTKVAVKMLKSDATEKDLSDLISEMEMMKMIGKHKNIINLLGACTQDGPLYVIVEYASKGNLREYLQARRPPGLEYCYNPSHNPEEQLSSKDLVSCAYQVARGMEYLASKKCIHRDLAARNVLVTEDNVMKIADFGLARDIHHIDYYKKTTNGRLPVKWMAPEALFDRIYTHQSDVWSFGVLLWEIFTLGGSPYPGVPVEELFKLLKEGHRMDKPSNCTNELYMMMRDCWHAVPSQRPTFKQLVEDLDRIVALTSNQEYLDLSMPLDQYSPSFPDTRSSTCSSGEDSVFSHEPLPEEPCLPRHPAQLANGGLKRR
T1 sequence (P22607 23-806 limits assumed, change not shown): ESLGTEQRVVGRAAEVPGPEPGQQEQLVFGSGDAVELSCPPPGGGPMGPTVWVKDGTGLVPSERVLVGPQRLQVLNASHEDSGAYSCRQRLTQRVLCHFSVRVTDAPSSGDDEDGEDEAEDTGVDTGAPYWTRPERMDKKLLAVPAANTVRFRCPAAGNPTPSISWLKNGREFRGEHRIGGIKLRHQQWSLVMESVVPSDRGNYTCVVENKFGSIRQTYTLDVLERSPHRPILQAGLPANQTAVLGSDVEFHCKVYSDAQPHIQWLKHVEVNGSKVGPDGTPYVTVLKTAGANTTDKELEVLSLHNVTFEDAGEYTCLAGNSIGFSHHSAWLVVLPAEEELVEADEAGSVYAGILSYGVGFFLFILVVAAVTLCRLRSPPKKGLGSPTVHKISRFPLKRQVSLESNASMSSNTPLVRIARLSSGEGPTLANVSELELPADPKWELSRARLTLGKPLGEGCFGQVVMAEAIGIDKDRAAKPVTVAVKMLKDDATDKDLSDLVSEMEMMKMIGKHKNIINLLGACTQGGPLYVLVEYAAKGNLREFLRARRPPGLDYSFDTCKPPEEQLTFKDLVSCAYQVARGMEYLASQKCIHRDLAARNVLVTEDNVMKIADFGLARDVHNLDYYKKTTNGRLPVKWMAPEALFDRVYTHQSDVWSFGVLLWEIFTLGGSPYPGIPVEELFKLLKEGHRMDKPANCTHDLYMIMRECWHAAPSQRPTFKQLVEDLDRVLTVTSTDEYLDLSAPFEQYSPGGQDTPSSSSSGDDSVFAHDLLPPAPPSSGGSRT

binding result [1]: no binding (tested: 15 µg/mL)
binding result [2]: no binding (tested: 15 µg/mL)
binding result [3]: binds
binding result [4]: binds
B1: rat anti-FGFR2 antibody FR2-2nd_#023 (antibody, V domains shown)
VH: EVQLVESGGGLVQPGRSMKLSCAASGLTFSNYGMAWVRQAPKKGLEWVAFISHDGGSSYYRDSVEGRFIISRDNAKSTLSLQMDSLRSEDTATYYCTTAGDYYSDNDWYFDFWGPGIMVTVSS
VL: DIQMTQSPSLLSASVGDRVTLSCKASQSIYNSLAWYQQKLGEAPKLLIYDADSLQTGIPSRFSGSGSGTDYTLTISSLQPEDVATYFCQKYYSGWTFGGGTKLELKR
notes: Rat monoclonal from hybridoma; also called rat FR2-2nd_#023; rat antibody FR2-2nd_#023

binding result [5]: no binding (tested: 5 µg/ml)
binding result [2]: no binding (tested: 15 µg/mL)
binding result [6]: binds
binding result [7]: binds
B2: mouse chimeric anti-FGFR2 antibody FR2-2nd_#023 (antibody, mouse IgG1, kappa, V domains shown)
VH: B1 VH
VL: B1 VL
notes: The full-chain entries may include a secretory signal; also called mouse chimeric FR2-2nd_#023; mouse IgG1 chimeric FR2-2nd_#023

binding result [8]: binds
binding result [9]: no binding (tested: 15 µg/mL)
binding result [10]: no binding (tested: 15 µg/mL)
binding result [11]: no binding (tested: 15 µg/mL)
B3: rat anti-FGFR2 antibody FR2-2nd_#028 (antibody, V domains shown)
VH: EVQLVESGGGLVQPGRSLKLSCAASGFTFSDYGMAWVRQAPTKGLEWVATISYDGSSTYYRDSVKGRFTISRENAKSTLSLQMDSLRSEDTATYYCTRHPTYYYIMDAWGQGASVTVSS
VL: DTVLTQSPALAVSLGQRVTISCRASKSVSTFMNWYQQKSGQQPKLLIYRASNLESGVPSRFSGSGSGTDFTLTIDPVEADDIANYYCQQSNELPLTFGSGTKLEIKR
notes: Rat monoclonal from hybridoma; also called rat FR2-2nd_#028; rat antibody FR2-2nd_#028

binding result [12]: no binding (tested: 5 µg/ml)
binding result [13]: binds
binding result [9]: no binding (tested: 15 µg/mL)
binding result [11]: no binding (tested: 15 µg/mL)
B4: mouse chimeric anti-FGFR2 antibody FR2-2nd_#028 (antibody, mouse IgG1, kappa, V domains shown)
VH: B3 VH
VL: B3 VL
notes: The full-chain entries may include a secretory signal; also called mouse chimeric FR2-2nd_#028; mouse IgG1 chimeric FR2-2nd_#028
